Test results taken from EP4796128A1, “ANTI-C-MET ANTIBODY-DRUG CONJUGATE COMPRISING CAMPTOTHECIN DERIVATIVE” (Celltrion, Inc., priority 2023, dated 2025).
Like-named read-outs stand apart in the source and are kept apart here. Non-standard residues stand in square brackets, D forms with d. Residues, ends and D or L forms follow the SMILES beside them. *: point of attachment. Dolaproine = CO[C@@H]([C@@H]1CCCN1)[C@@H](C)C(=O)O; Dil = CC[C@H](C)[C@H](NC)[C@@H](CC(=O)O)OC; X1 = C[C@@H](N*)[C@@H](O)c1ccccc1; NMeV = CN[C@H](C(=O)O)C(C)C

Experiments:
NCI-H1573 = assay: In-vitro cell viability assay (CellTiter-Glo); assay type: cell-based; details: Homo sapiens
T47D = assay: cells; assay type: cell-based; details: Homo sapiens, 144 h
NCI-H1975 = assay: In-vitro cell viability assay (CellTiter-Glo); assay type: cell-based; details: Homo sapiens
SNU-5 = assay: In-vitro cell viability assay (CellTiter-Glo); assay type: cell-based; details: Homo sapiens
HT29 = assay: In-vitro cell viability assay (CellTiter-Glo); assay type: cell-based; details: Homo sapiens, HT-29, 144 h
recombinant human c-Met [1] = target: T1, recombinant human c-Met (human, UniProt P08581 25-932); assay: BLI, antibody as loading sample, human c-Met
T1 construct: Recombinant protein used in ELISA and BLI; also called human c-MET protein; human-derived c-Met protein
T1 sequence (P08581 25-932 limits assumed): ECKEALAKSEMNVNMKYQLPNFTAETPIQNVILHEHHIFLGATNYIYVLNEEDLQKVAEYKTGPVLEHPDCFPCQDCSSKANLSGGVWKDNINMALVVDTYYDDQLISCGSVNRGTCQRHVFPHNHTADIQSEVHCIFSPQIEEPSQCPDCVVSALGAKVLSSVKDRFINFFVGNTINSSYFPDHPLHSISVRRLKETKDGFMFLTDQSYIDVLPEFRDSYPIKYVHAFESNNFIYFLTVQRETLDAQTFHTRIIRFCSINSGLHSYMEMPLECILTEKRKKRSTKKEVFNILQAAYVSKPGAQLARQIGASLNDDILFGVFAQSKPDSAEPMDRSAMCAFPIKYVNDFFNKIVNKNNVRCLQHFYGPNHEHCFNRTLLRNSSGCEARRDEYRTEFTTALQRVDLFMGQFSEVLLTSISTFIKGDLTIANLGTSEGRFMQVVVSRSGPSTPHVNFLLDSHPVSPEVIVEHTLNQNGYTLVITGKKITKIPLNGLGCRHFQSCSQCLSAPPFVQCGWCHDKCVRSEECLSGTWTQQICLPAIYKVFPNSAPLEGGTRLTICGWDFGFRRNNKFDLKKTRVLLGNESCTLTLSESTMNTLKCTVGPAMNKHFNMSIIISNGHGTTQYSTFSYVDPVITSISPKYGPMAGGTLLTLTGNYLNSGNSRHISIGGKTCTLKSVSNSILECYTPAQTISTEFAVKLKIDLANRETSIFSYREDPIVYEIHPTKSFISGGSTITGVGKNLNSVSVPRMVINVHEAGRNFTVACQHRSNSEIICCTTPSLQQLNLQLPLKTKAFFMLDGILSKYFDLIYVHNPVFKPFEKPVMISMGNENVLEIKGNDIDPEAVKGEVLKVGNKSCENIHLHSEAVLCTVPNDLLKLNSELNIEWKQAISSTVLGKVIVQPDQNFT

recombinant human c-Met [2] = target: T1, recombinant human c-Met; assay: ELISA on recombinant human c-Met
c-Met derived from dogs = target: T2, c-Met derived from dogs (dogs, UniProt Q75ZY9 25-935, limits assumed); assay: ELISA, cross-reactivity test with diluted M01
T2 construct: Antigen of the cross-reactivity ELISA; also called dog c-Met
T2 sequence (Q75ZY9 25-935 limits assumed): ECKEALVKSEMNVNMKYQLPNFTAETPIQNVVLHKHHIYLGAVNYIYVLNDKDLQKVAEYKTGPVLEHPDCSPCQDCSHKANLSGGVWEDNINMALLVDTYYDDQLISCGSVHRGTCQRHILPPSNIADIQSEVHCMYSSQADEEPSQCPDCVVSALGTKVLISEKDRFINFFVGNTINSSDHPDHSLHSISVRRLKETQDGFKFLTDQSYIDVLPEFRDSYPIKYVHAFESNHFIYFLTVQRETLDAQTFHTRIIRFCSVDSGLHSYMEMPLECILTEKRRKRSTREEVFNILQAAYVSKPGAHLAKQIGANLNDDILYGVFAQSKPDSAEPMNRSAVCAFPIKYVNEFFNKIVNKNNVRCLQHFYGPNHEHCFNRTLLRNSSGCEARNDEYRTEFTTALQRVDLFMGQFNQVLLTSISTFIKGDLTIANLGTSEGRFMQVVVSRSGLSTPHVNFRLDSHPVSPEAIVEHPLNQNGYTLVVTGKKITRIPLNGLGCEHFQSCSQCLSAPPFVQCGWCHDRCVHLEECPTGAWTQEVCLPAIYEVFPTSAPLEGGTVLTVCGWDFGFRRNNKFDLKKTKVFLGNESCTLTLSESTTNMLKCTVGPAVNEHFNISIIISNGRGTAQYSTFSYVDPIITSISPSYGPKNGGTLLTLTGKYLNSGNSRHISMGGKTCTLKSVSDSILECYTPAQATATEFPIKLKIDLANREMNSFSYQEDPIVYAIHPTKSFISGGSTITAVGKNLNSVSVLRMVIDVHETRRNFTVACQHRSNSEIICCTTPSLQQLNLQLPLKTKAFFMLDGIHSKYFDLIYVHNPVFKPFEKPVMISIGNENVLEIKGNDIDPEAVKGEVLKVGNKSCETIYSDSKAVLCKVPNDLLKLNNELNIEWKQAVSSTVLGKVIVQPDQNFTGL

c-Met derived from mice = target: T3, c-Met derived from mice (mice, UniProt P16056 25-931, limits assumed); assay: ELISA, cross-reactivity test with diluted M01
T3 construct: Antigen of the cross-reactivity ELISA; also called mouse c-Met
T3 sequence (P16056 25-931 limits assumed): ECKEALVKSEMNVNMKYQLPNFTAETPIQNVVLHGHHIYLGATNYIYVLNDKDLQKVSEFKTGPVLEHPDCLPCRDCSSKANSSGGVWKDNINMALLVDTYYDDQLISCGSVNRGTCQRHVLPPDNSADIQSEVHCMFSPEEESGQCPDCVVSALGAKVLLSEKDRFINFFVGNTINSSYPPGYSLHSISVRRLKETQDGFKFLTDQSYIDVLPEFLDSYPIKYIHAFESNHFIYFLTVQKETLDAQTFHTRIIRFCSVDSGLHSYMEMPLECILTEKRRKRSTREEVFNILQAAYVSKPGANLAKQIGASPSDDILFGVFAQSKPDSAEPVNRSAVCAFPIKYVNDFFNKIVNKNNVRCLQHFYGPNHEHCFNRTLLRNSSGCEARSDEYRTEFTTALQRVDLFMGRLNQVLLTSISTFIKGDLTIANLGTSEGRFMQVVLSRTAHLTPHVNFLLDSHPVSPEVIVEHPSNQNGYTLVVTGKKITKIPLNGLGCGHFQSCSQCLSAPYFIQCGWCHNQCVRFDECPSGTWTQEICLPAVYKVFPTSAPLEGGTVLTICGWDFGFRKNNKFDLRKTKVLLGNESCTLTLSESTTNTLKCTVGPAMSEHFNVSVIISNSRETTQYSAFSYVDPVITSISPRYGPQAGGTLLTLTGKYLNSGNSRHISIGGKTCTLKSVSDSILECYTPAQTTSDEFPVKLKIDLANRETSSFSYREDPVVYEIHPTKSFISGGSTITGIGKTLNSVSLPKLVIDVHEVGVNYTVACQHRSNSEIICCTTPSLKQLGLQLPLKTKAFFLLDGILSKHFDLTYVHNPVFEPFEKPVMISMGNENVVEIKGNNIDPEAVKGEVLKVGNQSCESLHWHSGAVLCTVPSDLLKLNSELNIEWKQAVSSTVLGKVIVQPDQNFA

c-Met derived from rats = target: T4, c-Met derived from rats (rats, UniProt P97523 25-935, limits assumed); assay: ELISA, cross-reactivity test with diluted M01
T4 construct: Antigen of the cross-reactivity ELISA; also called rat c-Met
T4 sequence (P97523 25-935 limits assumed): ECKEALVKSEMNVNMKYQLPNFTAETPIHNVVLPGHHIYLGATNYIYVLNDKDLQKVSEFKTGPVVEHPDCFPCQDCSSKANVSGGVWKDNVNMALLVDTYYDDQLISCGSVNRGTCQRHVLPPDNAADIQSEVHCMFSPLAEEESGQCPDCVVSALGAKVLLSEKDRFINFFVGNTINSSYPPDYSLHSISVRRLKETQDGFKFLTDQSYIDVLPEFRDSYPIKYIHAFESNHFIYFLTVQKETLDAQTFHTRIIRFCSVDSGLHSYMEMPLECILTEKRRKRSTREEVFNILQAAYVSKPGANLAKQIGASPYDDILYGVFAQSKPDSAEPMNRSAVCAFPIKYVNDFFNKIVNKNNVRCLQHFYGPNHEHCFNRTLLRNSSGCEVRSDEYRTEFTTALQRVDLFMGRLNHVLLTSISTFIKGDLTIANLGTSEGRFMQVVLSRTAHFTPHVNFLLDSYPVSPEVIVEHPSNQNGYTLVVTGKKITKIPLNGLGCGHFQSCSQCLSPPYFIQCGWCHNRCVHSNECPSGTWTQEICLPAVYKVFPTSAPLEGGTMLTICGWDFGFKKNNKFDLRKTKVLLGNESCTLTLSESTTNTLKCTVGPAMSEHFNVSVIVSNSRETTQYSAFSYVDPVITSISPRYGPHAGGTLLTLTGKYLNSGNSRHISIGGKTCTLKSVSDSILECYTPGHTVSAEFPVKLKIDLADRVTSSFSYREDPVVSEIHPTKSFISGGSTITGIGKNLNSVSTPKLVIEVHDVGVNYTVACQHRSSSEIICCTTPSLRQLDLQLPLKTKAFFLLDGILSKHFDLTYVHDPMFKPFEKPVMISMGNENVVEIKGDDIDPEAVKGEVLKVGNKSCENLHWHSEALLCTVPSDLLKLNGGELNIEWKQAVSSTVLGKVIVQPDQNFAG

[3] = target: T5, monkey c-Met (cynomolgus c-Met) (monkey (cynomolgus), UniProt A0A2K5UM36 25-932); assay: BLI, antibody as loading sample, monkey c-Met
T5 construct: Recombinant protein used in ELISA and BLI; also called monkey-derived c-MET protein; recombinant monkey c-Met
T5 sequence (A0A2K5UM36 entry or part of it limits assumed, form in doubt): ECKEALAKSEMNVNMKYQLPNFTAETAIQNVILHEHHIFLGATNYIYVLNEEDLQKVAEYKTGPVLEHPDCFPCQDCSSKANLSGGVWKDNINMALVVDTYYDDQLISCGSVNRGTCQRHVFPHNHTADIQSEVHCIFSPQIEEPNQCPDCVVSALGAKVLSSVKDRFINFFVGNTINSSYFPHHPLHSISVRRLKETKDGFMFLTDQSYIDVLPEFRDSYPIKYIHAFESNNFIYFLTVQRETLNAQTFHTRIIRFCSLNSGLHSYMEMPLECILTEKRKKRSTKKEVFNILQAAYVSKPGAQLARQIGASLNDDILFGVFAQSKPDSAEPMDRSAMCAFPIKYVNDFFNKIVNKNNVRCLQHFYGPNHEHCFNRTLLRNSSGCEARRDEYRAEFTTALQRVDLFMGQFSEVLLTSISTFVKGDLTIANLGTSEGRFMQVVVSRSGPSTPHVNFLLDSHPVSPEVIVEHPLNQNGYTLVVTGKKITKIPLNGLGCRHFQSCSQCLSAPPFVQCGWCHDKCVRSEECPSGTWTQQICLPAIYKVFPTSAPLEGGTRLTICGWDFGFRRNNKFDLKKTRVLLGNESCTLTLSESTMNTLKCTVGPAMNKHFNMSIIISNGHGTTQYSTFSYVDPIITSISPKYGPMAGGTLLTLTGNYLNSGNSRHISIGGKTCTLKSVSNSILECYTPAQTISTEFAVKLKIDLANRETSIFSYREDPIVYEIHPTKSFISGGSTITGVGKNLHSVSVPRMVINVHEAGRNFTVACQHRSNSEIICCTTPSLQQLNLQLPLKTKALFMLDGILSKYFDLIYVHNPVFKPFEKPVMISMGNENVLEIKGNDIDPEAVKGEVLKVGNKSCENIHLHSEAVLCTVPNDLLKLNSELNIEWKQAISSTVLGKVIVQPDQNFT

[4] = target: T5, monkey c-Met (cynomolgus c-Met); assay: ELISA on monkey (cynomolgus) c-Met
[5] = test system: NCI-H441 human lung cancer xenograft; assay: NCI-H441 human lung cancer xenograft model; assay type: in vivo, BALB/c nude mice; details: 3 mg/kg i.v. QW × 2 weeks
Protocol: NCI-H441 tumor cells (ATCC, Catalog No. HTB-174) were maintained in vitro in RPMI 1640 medium supplemented with 10% FBS and 1% antibiotic-antimycotic at 37°C and 5% CO2 in air. Tumor cells NCI-H441 were routinely passaged twice a week by treatment with trypsin-EDTA. The cells with exponential growth were harvested and counted for tumor inoculation.
Mice were randomly assigned to groups of 10 each, and tumor cells were inoculated into the mice according to the experimental conditions shown in Table 19 below. Specifically, NCI-H441 tumor cells (5 × 10^6 cells/mouse) were subcutaneously inoculated into the right flank of each mouse together with 0.2 mL of PBS containing Matrigel (1:1). Treatment was started on day 14 after inoculation, when the mean tumor volume reached 180 mm^3, and the treatment start date was set as day 0. This experiment was performed for 35 days.
Statistical analysis was performed on the data obtained 35 days after the start of the experiment to determine differences in tumor volume and tumor weight between groups. […] All data were analyzed using SPSS 29.0. p < 0.05 was considered statistically significant.

Molecule: CC[C@H](C)[C@@H]([C@@H](CC(=O)N1CCC[C@H]1[C@H](OC)[C@@H](C)C(=O)N[C@H](C)[C@@H](O)c1ccccc1)OC)N(C)C(=O)[C@@H](NC(=O)[C@@H](NC)C(C)C)C(C)C [MMAE, monomethyl auristatin E, reference compound] (H-[NMeV]V[Dil][Dolaproine]-X1)
- IC50 (NCI-H1573; 144 h, NCI-H1573, 6 days incubation, read-out: IC50): 420 pM
- IC50 (T47D; 6 days incubation, read-out: IC50): 510 pM
- IC50 (NCI-H1975; 144 h, NCI-H1975, 6 days incubation, read-out: IC50): 300 pM
- IC50 (SNU-5; 144 h, SNU-5, 6 days incubation, read-out: IC50): 420 pM
- IC50 (HT29; HT29, 6 days incubation, read-out: IC50): 140 pM

Molecule: CC[C@@]1(O)C(=O)OCc2c1cc1n(c2=O)Cc2c-1nc1cc3c(c4c1c2[C@@H](NC(=O)[C@@H](C)O)CC4)OCO3 [PBX-7016]
- IC50 (NCI-H1573; NCI-H1573, 144 h): 2550 pM
- IC50 (T47D): 450 pM
- IC50 (NCI-H1975; NCI-H1975, 144 h): 9800 pM
- IC50 (SNU-5; SNU-5, 144 h): 5210 pM
- IC50 (HT29): 3800 pM

B1: anti-c-Met antibody (M01) (antibody, human IgG1, kappa, V domains shown)
VH: QVQLVQSGAEVKKPGASVKVSCKASGYIFTAYTMHWVRQAPGQGLEWMGWIKPNNGLANYAQKFQGRVTMTRDTSISTAYMELSRLRSDDTAVYYCARSEITTEFDYWGQGTLVTVSS
VL: DIVMTQSPDSLAVSLGERATINCKSSESVDSYANSFLHWYQQKPGQPPKLLIYRASTRESGVPDRFSGSGSGTDFTLTISSLQAEDVAVYYCQQSKEDPLTFGGGTKVEIKR
notes: Naked antibody; also called M01 antibody; M01 (Anti-cMet mAb)
- Kd (recombinant human c-Met [1]): 605 pM
- koff (recombinant human c-Met [1]): 4.07e-05 s⁻¹
- kon (recombinant human c-Met [1]): 67400 M⁻¹ s⁻¹
- EC50 (recombinant human c-Met [2]): 140 pM
- binding result (c-Met derived from dogs): no binding
- binding result (c-Met derived from mice): no binding
- binding result (c-Met derived from rats): no binding
- Kd [3]: 707 pM
- koff [3]: 5.69e-05 s⁻¹
- kon [3]: 80500 M⁻¹ s⁻¹
- EC50 [4]: 140 pM

B2: P23-MMAE: isotype ADC: anti-influenza A antibody (Navivumab, P23) with monomethyl auristatin E payload; DAR 3.1 (conjugate, chains of the INN, looked up)
VH: QVQLVQSGAEVKKPGASVKVSCKTSGYSFSTYGVSWVRQAPGQGPEWVGWISAYTGITDYAQKFQGRVTLTTDATTATAFLDLRSLRPDDTATYFCARDKVQGRVEVGSGGRHDYWGQGTLVIVSS
VL: EVVLTQSPGTLALPPGERATLSCRASHRVGSTYIAWYQQKSGQAPRRLIYGASNRATDIPDRFSGSGSGTDFTLTIRRLEPEDSAVYYCQQFSVSPWTFGQGTRVEIK
modifications: MMAE payload, DAR 3.1
- Tumor Volume ([5]; Day 0, mean ± SEM): 180 ± 13 mm^3
- Tumor Volume ([5]; Day 4, mean ± SEM): 208 ± 19 mm^3
- Tumor Volume ([5]; Day 7, mean ± SEM): 244 ± 26 mm^3
- Tumor Volume ([5]; Day 11, mean ± SEM): 283 ± 36 mm^3
- Tumor Volume ([5]; Day 14, mean ± SEM): 287 ± 39 mm^3
- Tumor Volume ([5]; Day 18, mean ± SEM): 358 ± 66 mm^3
- Tumor Volume ([5]; Day 21, mean ± SEM): 396 ± 71 mm^3
- Tumor Volume ([5]; Day 25, mean ± SEM): 563 ± 93 mm^3
- Tumor Volume ([5]; Day 28, mean ± SEM): 708 ± 119 mm^3
- Tumor Volume ([5]; Day 32, mean ± SEM): 977 ± 193 mm^3
- TGI ([5]; Day 35): 26.27%
- Tumor Weight on Day 35 ([5]; Day 35): 1.342 ± 0.247 g
- T/C ([5]; Day 35, tumor volume vs P23 isotype mAb group): 76.70%
- T/Cweight ([5]; Day 35, tumor weight vs P23 isotype mAb group): 80.39%
